What all share (test): FP; fluorescence anisotropy; Zn2+, 25 C
Common to all, as to conditions: tags: N-terminal MBP; C-terminal GS linker + syntrophin ligand S5 (VKESLV)

In series [1] the target is T1, 43-8 (ZF1) high affinity synTF (artificial).
T1 chain: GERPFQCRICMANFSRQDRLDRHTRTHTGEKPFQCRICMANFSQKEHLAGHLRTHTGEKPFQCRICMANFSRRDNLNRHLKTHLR
As to the method:
(§1) All assays were conducted in 20 mM Tris, pH 7.5, 100 mM […], 50 μM ZnCl2 buffer at 25° C. Proteins, probes, and competitor oligos were added to a final volume of 300 μL. Probes were used at 10 nM in all experiments. For complex assembly experiments (FIG. 1C), indicated concentrations of MBP-ZF₄₃₋₈ harboring a VSKESLV* ligand (SEQ ID NO: 120) (see e.g., FIG. 5A-FIG. 5B, FIG. 7A-FIG. 7B) were titrated against 5 μM concentrations of clamp. Mixtures were allowed to equilibrate at 25° C. for 10 min in Costar black 96-well plates prior to reading. Fluorescence anisotropy (FA) measurements were made at 494 nm using a SpectraMax M5 (Molecular Devices) fluorescence plate reader. For all measurements, anisotropy (r) was calculated using the following equation, wherein I_{∥} and I_{⊥} are parallel and perpendicular fluorescence, respectively:
(§2) TF-DBM binding constants were measured in vitro by fluorescence anisotropy (FA). Recombinant proteins were purified and DBM oligos prepared as described herein. […] Affinities for the interaction were measured as a function of the increase in fluorescence anisotropy resulting from binding of the fusion to a fluorescently labeled (FITC) oligo probe (data not shown). Oligo probe binding to ZF affinity variants was measured. MBP-ZF was titrated against 10 nM oligo probe. […] Kd values were extracted by fitting data to a quadratic binding equation (data not shown). Competition binding experiments were performed to measure binding constants for DBM affinity variants. […] Competitor oligo Kₐ values were extracted by fitting data (converted to fraction probe bound) to a cubic equation describing competitive binding (see e.g., FIG. 6). Sequences for both sets of DBM affinity variants are listed on the right of FIG. 6.

The target of series [2] is T2, 43-8 (ZF1) low affinity synTF (artificial, R-to-A backbone (low affinity allele, already in ref)).
T2 chain: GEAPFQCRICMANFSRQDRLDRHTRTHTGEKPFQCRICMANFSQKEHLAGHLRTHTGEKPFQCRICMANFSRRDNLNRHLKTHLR
As for the experimental part:
as §1, §2

For series [3], the target named is T3, 42-10 (ZF2) high affinity synTF (artificial).
T3 chain: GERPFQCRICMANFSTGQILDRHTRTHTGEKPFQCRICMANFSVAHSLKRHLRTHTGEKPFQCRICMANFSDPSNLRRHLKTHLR
As for the experimental part:
as §1, §2

Series [4] concerns the target T4, 42-10 (ZF2) low affinity synTF (artificial, R-to-A backbone (low affinity allele, already in ref)).
T4 chain: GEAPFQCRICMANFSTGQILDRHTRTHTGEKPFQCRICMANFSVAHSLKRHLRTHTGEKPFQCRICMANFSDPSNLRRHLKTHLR
As to the method: as §1, §2

B1: 43-8 DBM1 (dsDNA)
DNA 1: AGAGTGAGGAC
DNA 2: GTCCTCACTCT
B1: the Kd in series [1] turned out to be 6.5 nM; in series [2], 13.6 nM.

B2: 42-10 DBM1 (dsDNA)
DNA 1: AGACGCTGCTC
DNA 2: GAGCAGCGTCT
With B2, the Kd was 2.4 nM in series [3] and 15 nM in series [4].

For the origin of these results see patent publication US20200002710A1, “SYSTEMS AND METHODS FOR CONTROL OF GENE EXPRESSION” (TRUSTEES OF BOSTON UNIVERSITY, published 2020).
